# In the supplement of paper PMC11908140:
# B1: library; numbered along this chain (parent)
# chain: MRKPRAAVGSGHRKQAASQEGRQKHAKNNSQAKPSACDGLARQPEEVVLQASVSSYHLFRDVAEVTAFRGSLLSWYDQEKRDLPWRRRAEDEMDLDRRAYAVWVSEVMLQQTQVATVINYYTGWMQKWPTLQDLASASLEEVNQLWAGLGYYSRGRRLQEGARKVVEELGGHMPRTAETLQQLLPGVGRYTAGAIASIAFGQATGVVDGNVARVLCRVRAIGADPSSTLVSQQLWGLAQQLVDPARPGDFNQAAMELGATVCTPQRPLCSQCPVESLCRARQRVEQEQLLASGSLSGSPDVEECAPNTGQCHLCLPPSEPWDQTLGVVNFPRKASRKPPREESSATCVLEQPGALGAQILLVQRPNSGLLAGLWEFPSVTWEPSEQLQRKALLQELQRWAGPLPATHLRHLGEVVHTFSHIKLTYQVYGLALEGQTPVTTVPPGARWLTQEEFHTAAVSTAMKKVFRVYQGQQPGTCMGSKRSQVSSPCSRKKPRMGQQVLDNFFRSHISTDAHSLNSAAQ
# Variants of: B1
# Test: 8OG:A repair function score (normalized; synonymous = 0, nonsense = -1) (normalized log-likelihood score); higher = more repair activity (WT-like)
# Details: with 8OG:A DNA repair reporter (GFP) in HEK-293 MUTYH KO cells
# Method in brief: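 With 10 pg/ml doxycycline, MUTYH knockout HEK-293 cells carrying lentiviral MUTYH cDNA NNN codon-scan libraries were co-transfected with mCherry and an 8OG:A GFP repair reporter. Viable mCherry+ cells were sorted into GFP+ (repair) and GFP− bins at 72 h, three replicates per tile, and tile amplicons were sequenced. Per-tile Rosace fitness scores were then normalized into a repair function score anchored on synonymous and nonsense distributions. Medians were fixed at 0 for synonymous and -1 for nonsense, excluding variants under 300 counts per million at the start.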
row,Variant,8OG:A repair function score
1,MRKPRAAVGSGHRKQAASQEGRQKHAKNNSQAKPSACDGLARQPEEVVLQASVSSYHLFRDVAEVTAFRGSLLSWYDQEKRDLPWRRRAEDEMDLDRRAYAVWVSEVMLQQTQVATVINYYTGWMQKWPTLQDLASASLEEVNQLWAGLGYYSRGRRLQEGARKVVEELGGHMPRTAETLQQLLPGVGRYTAGAIASIAFGQATGVVDGNVARVLCRVRAIGADPSSTLVSQQLWGLAQQLVDPARPGDFNQAAMELGATVCTPQRPLCSQCPVESLCRARQRVEQEQLLASGSLSGSPDVEECAPNTGQCHLCLPPSEPWDQTLGVVNFPRKASRKPPREESSATCVLEQPGALGAQILLVQRPNSGLLAGLWEFPSVTWEPSEQLQRKALLQELQRWAGPLPATHLRHLGEVVHTFSHIKLTYQVYGLALEGQTPVTTVPPGARWLTQEEFHTAAVSTAHKKVFRVYQGQQPGTCMGSKRSQVSSPCSRKKPRMGQQVLDNFFRSHISTDAHSLNSAAQ [M462H],-0.138
2,MRKPRAAVGSGHRKQAASQEGRQKHAKNNSQAKPSACDGLARQPEEVVLQASVSSYHLFRDVAEVTAFRGSLLSWYAQEKRDLPWRRRAEDEMDLDRRAYAVWVSEVMLQQTQVATVINYYTGWMQKWPTLQDLASASLEEVNQLWAGLGYYSRGRRLQEGARKVVEELGGHMPRTAETLQQLLPGVGRYTAGAIASIAFGQATGVVDGNVARVLCRVRAIGADPSSTLVSQQLWGLAQQLVDPARPGDFNQAAMELGATVCTPQRPLCSQCPVESLCRARQRVEQEQLLASGSLSGSPDVEECAPNTGQCHLCLPPSEPWDQTLGVVNFPRKASRKPPREESSATCVLEQPGALGAQILLVQRPNSGLLAGLWEFPSVTWEPSEQLQRKALLQELQRWAGPLPATHLRHLGEVVHTFSHIKLTYQVYGLALEGQTPVTTVPPGARWLTQEEFHTAAVSTAMKKVFRVYQGQQPGTCMGSKRSQVSSPCSRKKPRMGQQVLDNFFRSHISTDAHSLNSAAQ [D77A],-0.0463
3,MRKPRAAVGSGHRKQAASQEGRQKHAKNNSQAKPSACDGLARQPEEVVLQASVSSYHLFRDVAEVTAFRGSLLSWYDQEKRDLPWRRRAEDEMDLDRRAYAVWVSEVMLQQTQVATVINYYTGWMNKWPTLQDLASASLEEVNQLWAGLGYYSRGRRLQEGARKVVEELGGHMPRTAETLQQLLPGVGRYTAGAIASIAFGQATGVVDGNVARVLCRVRAIGADPSSTLVSQQLWGLAQQLVDPARPGDFNQAAMELGATVCTPQRPLCSQCPVESLCRARQRVEQEQLLASGSLSGSPDVEECAPNTGQCHLCLPPSEPWDQTLGVVNFPRKASRKPPREESSATCVLEQPGALGAQILLVQRPNSGLLAGLWEFPSVTWEPSEQLQRKALLQELQRWAGPLPATHLRHLGEVVHTFSHIKLTYQVYGLALEGQTPVTTVPPGARWLTQEEFHTAAVSTAMKKVFRVYQGQQPGTCMGSKRSQVSSPCSRKKPRMGQQVLDNFFRSHISTDAHSLNSAAQ [Q126N],0.0504
4,MRKPRAAVGSGHRKQAASQEGRQKHAKNNSQAKPSACDGLARQPEEVVLQASVSSYHLFRDVAEVTAFRGSLLSWYDQEKRDLPWRRRAEDEMDLDRRAYAVWVSEVMLQQTQVATVINYYTGWMQKWPTLQDLASASLEEVNQLWAGLGYYSRGRRLQEGARKVVEELGGHMPRTAETLQQLLPGVGRYTAGAIASIAFGQATGVVDGNVARVLCRVRAIGADPSSTLVSQQLWGLAQQLVDPARPGDFNQAAMELGATVCTPQRPLCSQCPVESLCRARQRVEQEQLLASGSLSGSPDVEECAPNTGQCHLCLPPSEPWDQTLGVVNFPRKASRKPPREESSATCVLEQPGALGAQILLVQRPNSGLLAGLWEFPSVTWEPSEQLQRKALLQELQRWAGPLPATHLRHLGEVVHTFSHIKLTYQVYGLALEGQTPVTTVPPGARWLTQEEFHTAAVSTAMKKVFRVYQGQQPGTCMGSKRSQVSSPCSRKKPRMGQQVLDNFFRSHISTNAHSLNSAAQ [D512N],-0.0198
5,MRKPRAAVGSGHRKQAASQEGRQKHAKNNSQAKPSACDGLARQPEEVVLQASVSSYHLFRDVAEVTAFRGSLLSWYDQEKRDLPWRRRAEDEMDLDRRAYAVWVSEVMLQQTQVATVINYYTGWMQKWPTLQDLASASLEEVNQLWAGLGYYSRGRRLQEGARKVVEELGGHMPRTAETLQQLLPGVGRYTAGAIASIAFGQATGVVDGNVARVLCRVRAIGADPSSTLVSQQLWGLAQQLVDPARPGDFNQAAMELGATVCTPQRPLCSQCPVESLCRARQRVEQEQLLASGSLSGSPDVEECAPNTGQCHLCLPPSEPWDQTLGVVNFPRKASRKPPREESSATCVLEQPGALGAQILLVQRPNSGLLAGLWEFPSVTWEPSEQLQRKALLQELQRWAGPLPATHLRHLGEVVHTFSHPKLTYQVYGLALEGQTPVTTVPPGARWLTQEEFHTAAVSTAMKKVFRVYQGQQPGTCMGSKRSQVSSPCSRKKPRMGQQVLDNFFRSHISTDAHSLNSAAQ [I421P],-1.15
6,MRKPRAAVGSGHRKQAASQEGRQKHAKNNSQAKPSACDGLARQPEEVVLQASVSSYHLFRDVAEVTAFRGSLLSWYDQEKRDLPWRRRAEDEMDLDRRAYAVWVSEVMLQQTQVATVINYYTGWMQKWPTLQDLASASLEEVNQLWAGLGYYSRGRRLQEGARGVVEELGGHMPRTAETLQQLLPGVGRYTAGAIASIAFGQATGVVDGNVARVLCRVRAIGADPSSTLVSQQLWGLAQQLVDPARPGDFNQAAMELGATVCTPQRPLCSQCPVESLCRARQRVEQEQLLASGSLSGSPDVEECAPNTGQCHLCLPPSEPWDQTLGVVNFPRKASRKPPREESSATCVLEQPGALGAQILLVQRPNSGLLAGLWEFPSVTWEPSEQLQRKALLQELQRWAGPLPATHLRHLGEVVHTFSHIKLTYQVYGLALEGQTPVTTVPPGARWLTQEEFHTAAVSTAMKKVFRVYQGQQPGTCMGSKRSQVSSPCSRKKPRMGQQVLDNFFRSHISTDAHSLNSAAQ [K164G],-0.431
7,MRKPRAAVGSGHRKQAASQEGRQKHAKNNSQAKPSACDGLARQPEEVVLQASVSSYHLFRDVAEVTAFRGSLLSWYDQEKRDLPWRRRAEDEMDLDRRAYAVWVSEVMLQQTQVATVINYYTGWMQKWPTLQDLASASLEEVNQLWAGLGYYSRGRRLQEGARKVVEELGGHMPRTAETLQQLLPGVGRYTAGAIASIAFGQATGVVDGNVARVLCRVRAIGADPSSTLVSQQLWGLAQQLVDPARPGDFNQAAMELGATVCTPQRPLCSQCPVESLCRARQRVEQEQLLASGSLSGSPDVEECAPNTGQCHLCLPPSEPWDQTLGVVNFPRKASRKPPREESSATCVLEQPGALGAQILLVQRPNSGTLAGLWEFPSVTWEPSEQLQRKALLQELQRWAGPLPATHLRHLGEVVHTFSHIKLTYQVYGLALEGQTPVTTVPPGARWLTQEEFHTAAVSTAMKKVFRVYQGQQPGTCMGSKRSQVSSPCSRKKPRMGQQVLDNFFRSHISTDAHSLNSAAQ [L369T],0.0329
8,MRKPRAAVGSGHRKQAASQEGRQKHAKNNSQAKPSACDGLARQPEEVVLQASVSSYHLFRDVAEVTAFRGSLLSWYDQEKRDLPWRRRAEDEMDLDRRAYAVWVSEVMLQQTQVATVINYYTGWMQEWPTLQDLASASLEEVNQLWAGLGYYSRGRRLQEGARKVVEELGGHMPRTAETLQQLLPGVGRYTAGAIASIAFGQATGVVDGNVARVLCRVRAIGADPSSTLVSQQLWGLAQQLVDPARPGDFNQAAMELGATVCTPQRPLCSQCPVESLCRARQRVEQEQLLASGSLSGSPDVEECAPNTGQCHLCLPPSEPWDQTLGVVNFPRKASRKPPREESSATCVLEQPGALGAQILLVQRPNSGLLAGLWEFPSVTWEPSEQLQRKALLQELQRWAGPLPATHLRHLGEVVHTFSHIKLTYQVYGLALEGQTPVTTVPPGARWLTQEEFHTAAVSTAMKKVFRVYQGQQPGTCMGSKRSQVSSPCSRKKPRMGQQVLDNFFRSHISTDAHSLNSAAQ [K127E],-0.0486
9,MRKPRAAVGSGHRKQAASQEGRQKHAKNNSQAKPSACDGLARQPEEVVLQASVSSYHLFRDVAEVTAFRGSLLSWYDQEKRDLPWRRRAEDEMDLDRRAYAVWVSEVMLQQTQVATVINYYTGWMQKWPTLQDLASASLEEVNQLWAGLGYYSRGRRLQEGARKVVEELGGHMPRTAETLQQLLPGVGRYTAGAIASIAFGQATGVVDGNVARVLCRVRAIGADPSSTLVSQQLWGLAQQLVDPARPGDFNQAAMELGATVCTPQRPLCSQCPVESLCRARQRVEQEQLLASGSLSGSPDVEECAPNTGQCHLCLPPSEPWDQTLGVVNFPRKASRKPPREESSATCVLEQPGALGAQILLVQRYNSGLLAGLWEFPSVTWEPSEQLQRKALLQELQRWAGPLPATHLRHLGEVVHTFSHIKLTYQVYGLALEGQTPVTTVPPGARWLTQEEFHTAAVSTAMKKVFRVYQGQQPGTCMGSKRSQVSSPCSRKKPRMGQQVLDNFFRSHISTDAHSLNSAAQ [P365Y],-0.212
10,MRKPRAAVGSGHRKQAASQEGRQKHAKNNSQAKPSACDGLARQPEEVVLQASVSSYHLFRDVAEVTAFRGSLLSWYDQEKRDLPWRRRAEDEMDLDRRAYAVWVSEVMLQQTQVATVINYYTGWMQKWPTLQDLASASLEEVNQLWAGLGYYSRGRRLQEGARKVVEELGGHMPRTAETLQQLLPGVGRYTAGAIASIAFGQATGVVDGNVARVLCRVRAIGADPSSTLVSQQLWGLAQQLVDPARPGDFNQAAMELGATVCTPQRPLCSQCPVESLCRARQRVEQEQLLASGSLSGMPDVEECAPNTGQCHLCLPPSEPWDQTLGVVNFPRKASRKPPREESSATCVLEQPGALGAQILLVQRPNSGLLAGLWEFPSVTWEPSEQLQRKALLQELQRWAGPLPATHLRHLGEVVHTFSHIKLTYQVYGLALEGQTPVTTVPPGARWLTQEEFHTAAVSTAMKKVFRVYQGQQPGTCMGSKRSQVSSPCSRKKPRMGQQVLDNFFRSHISTDAHSLNSAAQ [S298M],-0.0331
11,MRKPRAAVGSGHRKQAASQEGRQKHAKNNSQAKPSACDGLARQPEEVVLQASVSSYHLFRDVAEVTAFRGSLLSWYDQEKRDLPWRRRAEDEMDLDRRAYAVWVSEVMLQQTQVATVINYYTGWMQKWPTLQDLASASLEEVNQLWAGLGYYSRGRRLQEGARKVVEELGGHMPRTAETLQQLLPGVGRYTACAIASIAFGQATGVVDGNVARVLCRVRAIGADPSSTLVSQQLWGLAQQLVDPARPGDFNQAAMELGATVCTPQRPLCSQCPVESLCRARQRVEQEQLLASGSLSGSPDVEECAPNTGQCHLCLPPSEPWDQTLGVVNFPRKASRKPPREESSATCVLEQPGALGAQILLVQRPNSGLLAGLWEFPSVTWEPSEQLQRKALLQELQRWAGPLPATHLRHLGEVVHTFSHIKLTYQVYGLALEGQTPVTTVPPGARWLTQEEFHTAAVSTAMKKVFRVYQGQQPGTCMGSKRSQVSSPCSRKKPRMGQQVLDNFFRSHISTDAHSLNSAAQ [G193C],0.0546
12,MRKPRAAVGSGHRKQAASQEGRQKHAKNNSQAKPSACDGLARQPEEVVLQASVSSYHLFRDVAEVTAFRGSLLSWYDQEKRDLPWRRRAEDEMDLDRRAYAVWVSEVMLQQTQVATVINYYTGWMQKWPTLQDLASASLEEVNQLWAGLGYYSRGRRLQEGARKVVEELGGHMPRTAETLQQLLPGVGRYTAGAIASIAFGQATGVVDGNVARVLCRVRAIGADPSSTLVSQQLWGLAQQLVDPARPGDFNQAAMELGATVCTPQRPLCSQCPVESLCRARQRVEQEQLLASGSLSGSPDVEECAPNTGQCHLCLPMSEPWDQTLGVVNFPRKASRKPPREESSATCVLEQPGALGAQILLVQRPNSGLLAGLWEFPSVTWEPSEQLQRKALLQELQRWAGPLPATHLRHLGEVVHTFSHIKLTYQVYGLALEGQTPVTTVPPGARWLTQEEFHTAAVSTAMKKVFRVYQGQQPGTCMGSKRSQVSSPCSRKKPRMGQQVLDNFFRSHISTDAHSLNSAAQ [P317M],0.112
